These results are taken from the RNAGym collection of RNA variant scans (doi:10.7554/elife.80360).

B1: HDV Ribozyme (parent)
chain: GGCCGGCAUGGUCCCAGCCUCCUCGCUGGCGCCGGCUGGGCAACAUUCCGAGGGGACCGUCCCCUCGGUAAUGGCGAAUGGGACCCA

The variants in the series derive from B1. The series is described as follows: self-cleavage, relative activity (ratio to wild type); higher = more cleavage; co-transcriptional.
Consider GGCCGGCAUGGUCCCAGCCUCCUCGCUGGCGCCGGCUGGGCAACAUUCCGAGGGGACCGUCCCCUCGGUAAAGGCGAAUUGGACCCA [U72A G80U], for which the self-cleavage amounted to 0.251.

In the case of GGCCGGCAUGGUCCCAGCCUCCUCGCUGGCGCCGGCUGGGCAACAUUCCGAGGGGACCGUCCCCUCGGUAACGGCGAAUGGGACCGA [U72C C86G], the self-cleavage was found to be 0.277.

In the case of GGCCGGCAUGGUCCCAGCCUCCUCGCUGGCGCCGGCUGGGCAACAUUCCGAGGGGACCGUCCCCUCGGUAUUGGCGAAUGGGACGCA [A71U C85G], the self-cleavage amounted to 0.587.

As to GGCCGGCAUGGUCCCAGCCUCCUCGCUGGCGCCGGCUGGGCAACAUUCCGAGGGGACCGUCCCCUCGGUAAGGGCGAAUCGGACCCA [U72G G80C], the self-cleavage turned out to be 0.26.

In the case of GGCCGGCAUGGUCCCAGCCUCCUCGCUGGCGCCGGCUGGGCAACAUUCCGAGGGGACCGUCCCCUCGGUAAGGGCGAAUGGUACCCA [U72G G82U], the self-cleavage came to 0.

Regarding GGCCGGCAUGGUCCCAGCCUCCUCGCUGGCGCCGGCUGGGCAACAUUCCGAGGGGACCGUCCCCUCGGUAAAGGCGGAUGGGACCCA [U72A A77G], the self-cleavage turned out to be 0.57.

With GGCCGGCAUGGUCCCAGCCUCCUCGCUGGCGCCGGCUGGGCAACAUUCCGAGGGGACCGUCCCCUCGGUAACGGCGAAGGGGACCCA [U72C U79G], the self-cleavage came out at 0.133.

For the variant GGCCGGCAUGGUCCCAGCCUCCUCGCUGGCGCCGGCUGGGCAACAUUCCGAGGGGACCGUCCCCUCGGUAUUGUCGAAUGGGACCCA [A71U G74U], the self-cleavage was found to be 0.689.

On to GGCCGGCAUGGUCCCAGCCUCCUCGCUGGCGCCGGCUGGGCAACAUUCCGAGGGGACCGUCCCCUCGGUAUUGACGAAUGGGACCCA [A71U G74A], for which the self-cleavage was 0.519.

As to GGCCGGCAUGGUCCCAGCCUCCUCGCUGGCGCCGGCUGGGCAACAUUCCGAGGGGACCGUCCCCUCGGUAACGGCGAAUGGGCCCCA [U72C A83C], the self-cleavage came to 0.332.

In the case of GGCCGGCAUGGUCCCAGCCUCCUCGCUGGCGCCGGCUGGGCAACAUUCCGAGGGGACCGUCCCCUCGGUAACGGCGAAUGGGUCCCA [U72C A83U], the self-cleavage is 0.128.

Consider GGCCGGCAUGGUCCCAGCCUCCUCGCUGGCGCCGGCUGGGCAACAUUCCGAGGGGACCGUCCCCUCGGUAAUAGCGAAUGGGCCCCA [G73A A83C], for which the self-cleavage was found to be 0.198.

As for GGCCGGCAUGGUCCCAGCCUCCUCGCUGGCGCCGGCUGGGCAACAUUCCGAGGGGACCGUCCCCUCGGUAUUGGCGAAUGGGUCCCA [A71U A83U], the self-cleavage turned out to be 0.426.

As to GGCCGGCAUGGUCCCAGCCUCCUCGCUGGCGCCGGCUGGGCAACAUUCCGAGGGGACCGUCCCCUCGGUAUUCGCGAAUGGGACCCA [A71U G73C], the self-cleavage turned out to be 0.54.

Consider GGCCGGCAUGGUCCCAGCCUCCUCGCUGGCGCCGGCUGGGCAACAUUCCGAGGGGACCGUCCCCUCGGUAAUAGCGAAUGGGAACCA [G73A C84A], for which the self-cleavage was determined as 0.564.

Take GGCCGGCAUGGUCCCAGCCUCCUCGCUGGCGCCGGCUGGGCAACAUUCCGAGGGGACCGUCCCCUCGGUAAAGGCGAAUGGGACCCA [U72A]: the self-cleavage came to 0.698.

For the variant GGCCGGCAUGGUCCCAGCCUCCUCGCUGGCGCCGGCUGGGCAACAUUCCGAGGGGACCGUCCCCUCGGUAAGGGCGAAUGGGACCCA [U72G], the self-cleavage is 0.662.

GGCCGGCAUGGUCCCAGCCUCCUCGCUGGCGCCGGCUGGGCAACAUUCCGAGGGGACCGUCCCCUCGGUAACGGCGAAUGGGACCCA [U72C]: the self-cleavage is 0.589.

As to GGCCGGCAUGGUCCCAGCCUCCUCGCUGGCGCCGGCUGGGCAACAUUCCGAGGGGACCGUCCCCUCGGUAAGGCCGAAUGGGACCCA [U72G G74C], the self-cleavage is 0.237.

For GGCCGGCAUGGUCCCAGCCUCCUCGCUGGCGCCGGCUGGGCAACAUUCCGAGGGGACCGUCCCCUCGGUAAGGGCGAAUGGGAUCCA [U72G C84U], the self-cleavage amounted to 0.386.

Regarding GGCCGGCAUGGUCCCAGCCUCCUCGCUGGCGCCGGCUGGGCAACAUUCCGAGGGGACCGUCCCCUCGGUAAAGGUGAAUGGGACCCA [U72A C75U], the self-cleavage was 0.199.

As for GGCCGGCAUGGUCCCAGCCUCCUCGCUGGCGCCGGCUGGGCAACAUUCCGAGGGGACCGUCCCCUCGGUAAAGGGGAAUGGGACCCA [U72A C75G], the self-cleavage worked out at 0.119.

For the variant GGCCGGCAUGGUCCCAGCCUCCUCGCUGGCGCCGGCUGGGCAACAUUCCGAGGGGACCGUCCCCUCGGUAAGGGCGAAUGGGACGCA [U72G C85G], the self-cleavage stood at 0.609.

Consider GGCCGGCAUGGUCCCAGCCUCCUCGCUGGCGCCGGCUGGGCAACAUUCCGAGGGGACCGUCCCCUCGGUAUUGGCGAGUGGGACCCA [A71U A78G], for which the self-cleavage was found to be 0.59.

Regarding GGCCGGCAUGGUCCCAGCCUCCUCGCUGGCGCCGGCUGGGCAACAUUCCGAGGGGACCGUCCCCUCGGUAUUGGCGACUGGGACCCA [A71U A78C], the self-cleavage came to 0.188.

In the case of GGCCGGCAUGGUCCCAGCCUCCUCGCUGGCGCCGGCUGGGCAACAUUCCGAGGGGACCGUCCCCUCGGUAACGGCGAAUGGGAACCA [U72C C84A], the self-cleavage is 0.166.

GGCCGGCAUGGUCCCAGCCUCCUCGCUGGCGCCGGCUGGGCAACAUUCCGAGGGGACCGUCCCCUCGGUAACGGCGAAUGGGAGCCA [U72C C84G]: the self-cleavage turned out to be 0.369.

In the case of GGCCGGCAUGGUCCCAGCCUCCUCGCUGGCGCCGGCUGGGCAACAUUCCGAGGGGACCGUCCCCUCGGUAUUGGCGAAGGGGACCCA [A71U U79G], the self-cleavage turned out to be 0.831.

As to GGCCGGCAUGGUCCCAGCCUCCUCGCUGGCGCCGGCUGGGCAACAUUCCGAGGGGACCGUCCCCUCGGUAACGGCGAGUGGGACCCA [U72C A78G], the self-cleavage was determined as 0.237.

For the variant GGCCGGCAUGGUCCCAGCCUCCUCGCUGGCGCCGGCUGGGCAACAUUCCGAGGGGACCGUCCCCUCGGUAAUAGUGAAUGGGACCCA [G73A C75U], the self-cleavage was found to be 0.119.

On to GGCCGGCAUGGUCCCAGCCUCCUCGCUGGCGCCGGCUGGGCAACAUUCCGAGGGGACCGUCCCCUCGGUAAUAGGGAAUGGGACCCA [G73A C75G], for which the self-cleavage is 0.19.

Turning to GGCCGGCAUGGUCCCAGCCUCCUCGCUGGCGCCGGCUGGGCAACAUUCCGAGGGGACCGUCCCCUCGGUAUAGGCGAAUGGGACCCA [A71U U72A], the self-cleavage was 0.969.
